Two molecules from patent publication US20150050670A1 can be followed below.

Conditions in all cases: chains Vgamma:Vdelta
The target in test [1] is peptide on (human). Nature of the test: IFNγ ELISA, CD4+ transduced T-cells against Daudi, pamidronate titration; against γ9-G115wt/δ2-G115wt (max. 800 pg/ml); full-length, on cells.
In test [2] the target is peptide on (human). Nature of the test: IFNγ ELISA, CD4+ transduced T-cells against Daudi, pamidronate titration; full-length, on cells. Further details: unit not given here. A general note: An ELISA detects its analyte on a solid surface through an enzyme-linked reagent.
Test [3] has as its target peptide on (human). Nature of the test: IFNγ ELISA, CD4+ transduced T-cells against Daudi, pamidronate titration; against γ9-G115wt/δ2-G115wt (max. 800 pg/ml); the clone number is missing in the printed name; full-length, on cells.

B1: γ9-cl3wt/δ2-cl3wt (protein)
chain 1: AGHLEQPQISSTKTLSKTARLECVVSGITISATSVYWYRERPGEVIQFLVSISYDGTVRKESGIPSGKFEVDRIPETSTSTLTIHNVEKQDIATYYCALWEEELGKKIKVFGPGTKLIIT
chain 2: AIELVPEHQTVPVSIGVPATLRCSMKGEAIGNYYINWYRKTQGNTMTFIYREKDIYGPGFKDNFQGDIDIAKNLAVLKILAPSERDEGSYYCACDLLGYTDKLIFGKGTRVTVEP
In turn, B1 gave a maximal IFNγ secretion in the test with peptide on (human) [1] of 600 µg/mL. This molecule displayed an EC50 of pamidronate with peptide on (human) [2] of 30.

B2: γ9-cl3wt/δ2-G115wt (protein)
chain 1: B1 chain 1
chain 2: AIELVPEHQTVPVSIGVPATLRCSMKGEAIGNYYINWYRKTQGNTMTFIYREKDIYGPGFKDNFQGDIDIAKNLAVLKILAPSERDEGSYYCACDTLGMGGEYTDKLIFGKGTRVTVEP
In the test with peptide on (human) [3], B2 had a maximal IFNγ secretion of 100 pg/mL.
